In PMC6829599 (The Journal of Experimental Medicine, 2019):

What was measured:
[1] = target: recombinant PCNA (proliferating cell nuclear antigen) (human) (UniProt P12004); experiment: SPR
[2] = target: recombinant PCNA (proliferating cell nuclear antigen) (human, UniProt P12004 1-261); experiment: SPR

Row | Molecule | Kd [1] | k (backward) (two-state model, second step) [1] | k (forward) (two-state model, second step) [1] | ka1 (two-state model, first step) [1] | kd1 (two-state model, first step) [1] | Kd [2] | kon [2]
1 | recombinant human Rac2 (from UniProt P15153 1-192) (natural protein; other documents disagree on this pair) | 3.3 µM | 0.00066 s⁻¹ | 0.0057 s⁻¹ | 541 M⁻¹ s⁻¹ | 0.017 s⁻¹ |  | 
2 | p47phox PX domain (truncated p47phox, residues 2–132) (domain or fragment) GDTFIRHIALLGFEKRFVPSQHYVYMFLVKWQDLSEKVVYRRFTEIYEFHKTLKEMFPIEAGAINPENRIIPHLPAPKWFDGQRAAENRQGTLTEYCSTLMSLPTKISRCPHLLDFFKVRPDDLKLPTDNQ |  |  |  |  |  | 33 µM | 85.2 M⁻¹ s⁻¹
